Source: publication PMC11199644, “Structural and mechanistic insights into a lysosomal membrane enzyme HGSNAT involved in Sanfilippo syndrome” (Nature Communications, 2024)

Target: the molecule itself
Assay: cryo-EM structure; purified HGSNAT in 20 mM HEPES pH 7.4, 150 mM NaCl, 0.01% GDN; apo (two conformations) or with acetyl-CoA, CoA, acetyl-CoA + MU-βGlcN, CoA + MUF-NAG; six structures, all dimers

B1: heparan sulfate acetyl-CoA:α-glucosaminide N-acetyltransferase (HGSNAT) (enzyme, human, UniProt Q68CP4-2 1-635, looked up)
chain: MSGAGRALAALLLAASVLSAALLAPGGSSGRDAQAAPPRDLDKKRHAELKMDQALLLIHNELLWTNLTVYWKSECCYHCLFQVLVNVPQSPKAGKPSAAAASVSTQHGSILQLNDTLEEKEVCRLEYRFGEFGNYSLLVKNIHNGVSEIACDLAVNEDPVDSNLPVSIAFLIGLAVIIVISFLRLLLSLDDFNNWISKAISSRETDRLINSELGSPSRTDPLDGDVQPATWRLSALPPRLRSVDTFRGIALILMVFVNYGGGKYWYFKHASWNGLTVADLVFPWFVFIMGSSIFLSMTSILQRGCSKFRLLGKIAWRSFLLICIGIIIVNPNYCLGPLSWDKVRIPGVLQRLGVTYFVVAVLELLFAKPVPEHCASERSCLSLRDITSSWPQWLLILVLEGLWLGLTFLLPVPGCPTGYLGPGGIGDFGKYPNCTGGAAGYIDRLLLGDDHLYQHPSSAVLYHTEVAYDPEGILGTINSIVMAFLGVQAGKILLYYKARTKDILIRFTAWCCILGLISVALTKVSENEGFIPVNKNLWSLSYVTTLSSFAFFILLVLYPVVDVKGLWTGTPFFYPGMNSILVYVGHEVFENYFPFQWKLKDNQSHKEHLTQNIVATALWVLIAYILYRKKIFWKI
notes: human HGSNAT, open reading frame of UniProt Q68CP4-2 (short isoform 2, 28 residues from the N-terminal missing); The purified sample held two species, the full-length protein and the auto-cleaved form (alpha and beta chains still together); A thrombin site lies between HGSNAT and the tags, so some residues of it may be left after cleavage; also called TMEM76; heparan-α-glucosaminide …
- stoichiometry N: 2
